How the values were obtained:
Experiment in all cases: cell-based or functional assay
[1] = biological target: T1, full-length human Robo 4 (on cells) (human, UniProt Q8WZ75 28-1007)
T1 sequence: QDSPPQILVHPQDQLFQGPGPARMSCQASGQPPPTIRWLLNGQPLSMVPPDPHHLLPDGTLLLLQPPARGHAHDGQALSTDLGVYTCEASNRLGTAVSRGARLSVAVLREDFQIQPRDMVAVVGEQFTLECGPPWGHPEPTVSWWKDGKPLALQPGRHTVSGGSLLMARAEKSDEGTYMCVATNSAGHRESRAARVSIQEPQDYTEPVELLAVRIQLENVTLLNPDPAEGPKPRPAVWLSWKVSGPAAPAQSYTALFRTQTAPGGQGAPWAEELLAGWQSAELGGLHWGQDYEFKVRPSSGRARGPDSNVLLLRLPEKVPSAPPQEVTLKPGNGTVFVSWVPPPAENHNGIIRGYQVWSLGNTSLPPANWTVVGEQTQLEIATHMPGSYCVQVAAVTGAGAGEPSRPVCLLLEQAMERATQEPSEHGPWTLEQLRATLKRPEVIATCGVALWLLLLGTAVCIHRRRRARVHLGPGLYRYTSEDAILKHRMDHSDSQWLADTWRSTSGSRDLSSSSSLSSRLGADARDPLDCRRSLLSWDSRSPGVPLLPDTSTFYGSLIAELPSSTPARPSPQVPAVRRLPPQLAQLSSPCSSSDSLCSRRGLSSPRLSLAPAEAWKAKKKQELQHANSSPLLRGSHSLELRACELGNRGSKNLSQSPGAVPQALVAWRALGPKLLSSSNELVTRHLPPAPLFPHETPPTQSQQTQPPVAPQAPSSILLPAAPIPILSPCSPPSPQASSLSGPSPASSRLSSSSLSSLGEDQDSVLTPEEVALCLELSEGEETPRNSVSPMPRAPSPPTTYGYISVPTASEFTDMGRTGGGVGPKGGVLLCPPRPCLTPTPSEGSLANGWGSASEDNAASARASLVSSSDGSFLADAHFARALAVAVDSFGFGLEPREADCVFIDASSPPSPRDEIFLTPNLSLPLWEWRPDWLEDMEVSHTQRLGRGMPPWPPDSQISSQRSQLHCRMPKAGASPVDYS

[2] = biological target: T1, full-length human Robo 4 (on cells); remark: listed apart in the source
[3] = biological target: T2, mouse Robo 4 on MS-1 mouse endothelial cells (mouse, UniProt Q8C310 28-1012)
T2 sequence: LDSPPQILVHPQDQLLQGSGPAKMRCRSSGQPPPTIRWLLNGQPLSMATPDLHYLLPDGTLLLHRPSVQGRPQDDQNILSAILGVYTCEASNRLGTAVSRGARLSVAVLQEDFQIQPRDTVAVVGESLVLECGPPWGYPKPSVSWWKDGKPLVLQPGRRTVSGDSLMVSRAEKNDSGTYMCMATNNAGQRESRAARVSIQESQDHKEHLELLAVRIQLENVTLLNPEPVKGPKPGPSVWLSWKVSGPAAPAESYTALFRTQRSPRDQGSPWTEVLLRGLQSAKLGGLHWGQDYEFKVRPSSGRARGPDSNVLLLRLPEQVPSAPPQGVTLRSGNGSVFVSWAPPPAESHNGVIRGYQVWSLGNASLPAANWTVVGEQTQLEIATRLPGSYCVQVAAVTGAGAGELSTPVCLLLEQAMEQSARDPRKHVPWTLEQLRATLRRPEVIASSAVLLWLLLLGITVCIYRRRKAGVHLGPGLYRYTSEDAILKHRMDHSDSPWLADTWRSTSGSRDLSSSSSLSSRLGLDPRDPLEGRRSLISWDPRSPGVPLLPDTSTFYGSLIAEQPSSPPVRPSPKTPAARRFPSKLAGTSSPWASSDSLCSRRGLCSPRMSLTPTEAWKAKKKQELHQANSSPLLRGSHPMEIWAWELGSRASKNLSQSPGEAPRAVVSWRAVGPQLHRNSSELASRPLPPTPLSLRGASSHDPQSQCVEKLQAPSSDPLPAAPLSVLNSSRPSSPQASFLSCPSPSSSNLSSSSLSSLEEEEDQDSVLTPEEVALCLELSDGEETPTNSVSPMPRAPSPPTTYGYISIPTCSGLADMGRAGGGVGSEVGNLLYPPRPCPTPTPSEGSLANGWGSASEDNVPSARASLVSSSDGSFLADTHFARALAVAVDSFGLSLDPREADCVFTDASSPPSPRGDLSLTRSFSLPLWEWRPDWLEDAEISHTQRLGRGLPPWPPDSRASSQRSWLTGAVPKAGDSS

B1: Molecule B, 1+1 CrossFab-IgG (VH/VL exchange in CD3 binder, CD3 binder V9, Robo 4 binder 01F05) (bispecific antibody)
chain 1: not shown
chain 2: QLVLTQSPSASASLGASVKLTCTLSSQHSSYGITWLQQHPDKAPKYVMYLKSDGSHTKGADIPDRFSGSSSGVHRYLSISNVQPEDEAIYFCVTYDSTHVFGSGTQLTVLGQPKAAPSVTLFPPSSEELQANKATLVCLISDFYPGAVTVAWKADSSPVKAGVETTTPSKQSNNKYAASSYLSLTPEQWKSHRSYSCQVTHEGSTVEKTVAPTECS
chain 3: EVQLVESGGGLVQPGGSLRLSCAASGYSFTGYTMNWVRQAPGKGLEWVALINPYKGVSTYNQKFKDRFTISVDKSKNTAYLQMNSLRAEDTAVYYCARSGYYGDSDWYFDVWGQGTLVTVSSASVAAPSVFIFPPSDEQLKSGTASVVCLLNNFYPREAKVQWKVDNALQSGNSQESVTEQDSKDSTYSLSSTLTLSKADYEKHKVYACEVTHQGLSSPVTKSFNRGEC
chain 4: DKTHTCPPCPAPEAAGGPSVFLFPPKPKDTLMISRTPEVTCVVVDVSHEDPEVKFNWYVDGVEVHNAKTKPREEQYNSTYRVVSVLTVLHQDWLNGKEYKCKVSNKALGAPIEKTISKAKGQPREPQVCTLPPSRDELTKNQVSLSCAVKGFYPSDIAVEWESNGQPENNYKTTPPVLDSDGSFFLVSKLTVDKSRWQQGNVFSCSVMHEALHNHYTQKSLSLSPGK
[1]
  EC50 of T-cell mediated killing of HUVECs (LDH release, human pan T cells, E:T 5:1, 22 h): 0.164 nM
[2]
  EC50 of T-cell mediated killing of HUVECs (LDH release, human PBMCs, E:T 10:1), 24 h: 1.61 nM
  EC50 of T-cell mediated killing of HUVECs (LDH release, human PBMCs, E:T 10:1), 48 h: 1.55 nM
[3]
  EC50 of T-cell mediated killing of MS-1 cells (LDH release, human pan T cells, E:T 5:1, 17 h): 0.115 nM

B2: Molecule I, 1+1 Fab-CrossFab (VH/VL exchange in CD3 binder, CD3 binder V9, Robo 4 binder 01F09) (bispecific antibody)
chain 1: QIQLQESGPGLVKPSQSLSLTCSVTGYSISSGSLWTWIRQFPGNNLEWMGYISYAGGIDYNPSLTSRISITRDTSRNQFFLQLESVTTQDTATYYCATPGGYPFHFDYWGQGTMVTVSSASTKGPSVFPLAPSSKSTSGGTAALGCLVKDYFPEPVTVSWNSGALTSGVHTFPAVLQSSGLYSLSSVVTVPSSSLGTQTYICNVNHKPSNTKVDKKVEPKSCDGGGGSGGGGSDIQMTQSPSSLSASVGDRVTITCRASQDIRNYLNWYQQKPGKAPKLLIYYTSRLESGVPSRFSGSGSGTDYTLTISSLQPEDFATYYCQQGNTLPWTFGQGTKVEIKSSASTKGPSVFPLAPSSKSTSGGTAALGCLVKDYFPEPVTVSWNSGALTSGVHTFPAVLQSSGLYSLSSVVTVPSSSLGTQTYICNVNHKPSNTKVDKKVEPKSC
chain 2: QPVLTQSPSASASLGASVKLTCTLNSQFSTYNIGWYQQHRDKPPKYVMFVKGDGGHSKADGIPDRFSGSSSGADRYLTISNIQAEDEAIYFCGADYNNAGQYGCVFGSGTHFTVLGQPKAAPSVTLFPPSSEELQANKATLVCLISDFYPGAVTVAWKADSSPVKAGVETTTPSKQSNNKYAASSYLSLTPEQWKSHRSYSCQVTHEGSTVEKTVAPTECS
chain 3: EVQLVESGGGLVQPGGSLRLSCAASGYSFTGYTMNWVRQAPGKGLEWVALINPYKGVSTYNQKFKDRFTISVDKSKNTAYLQMNSLRAEDTAVYYCARSGYYGDSDWYFDVWGQGTLVTVSSASVAAPSVFIFPPSDEQLKSGTASVVCLLNNFYPREAKVQWKVDNALQSGNSQESVTEQDSKDSTYSLSSTLTLSKADYEKHKVYACEVTHQGLSSPVTKSFNRGEC
[1]
  EC50 of T-cell mediated killing of HUVECs (LDH release, human pan T cells, E:T 5:1, 22 h): 0.198 nM
[3]
  EC50 of T-cell mediated killing of MS-1 cells (LDH release, human pan T cells, E:T 5:1, 17 h): 4.56 nM

B3: Molecule G, 1+1 Fab-CrossFab (VH/VL exchange in CD3 binder, CD3 binder V9, Robo 4 binder 01E06) (bispecific antibody)
chain 1: EVQLVESGGGLSQPGNSLKLSCEASGFTFRNYDMSWVRQAPGKGLEWVAYISSGGGPIYYVDAVKGRFTISRDNAKNLLFLQMNNLRSEDTAVYYCARDLADIGVFDYWGQGTMVTVSSASTKGPSVFPLAPSSKSTSGGTAALGCLVKDYFPEPVTVSWNSGALTSGVHTFPAVLQSSGLYSLSSVVTVPSSSLGTQTYICNVNHKPSNTKVDKKVEPKSCDGGGGSGGGGSDIQMTQSPSSLSASVGDRVTITCRASQDIRNYLNWYQQKPGKAPKLLIYYTSRLESGVPSRFSGSGSGTDYTLTISSLQPEDFATYYCQQGNTLPWTFGQGTKVEIKSSASTKGPSVFPLAPSSKSTSGGTAALGCLVKDYFPEPVTVSWNSGALTSGVHTFPAVLQSSGLYSLSSVVTVPSSSLGTQTYICNVNHKPSNTKVDKKVEPKSC
chain 2: DFKMTQSPDILSPSLGESVTITCQSSQNIYSNLAWYQQKPGEHPKLLIYTASILADGIPSRFTGSGSGTQFSLKISSLQPDDVANYYCQQYVYYRTFGPGTKLEIKRTVAAPSVFIFPPSDEQLKSGTASVVCLLNNFYPREAKVQWKVDNALQSGNSQESVTEQDSKDSTYSLSSTLTLSKADYEKHKVYACEVTHQGLSSPVTKSFNRGEC
chain 3: EVQLVESGGGLVQPGGSLRLSCAASGYSFTGYTMNWVRQAPGKGLEWVALINPYKGVSTYNQKFKDRFTISVDKSKNTAYLQMNSLRAEDTAVYYCARSGYYGDSDWYFDVWGQGTLVTVSSASVAAPSVFIFPPSDEQLKSGTASVVCLLNNFYPREAKVQWKVDNALQSGNSQESVTEQDSKDSTYSLSSTLTLSKADYEKHKVYACEVTHQGLSSPVTKSFNRGEC
[1]
  EC50 of T-cell mediated killing of HUVECs (LDH release, human pan T cells, E:T 5:1, 22 h): 0.036 nM
[3]
  EC50 of T-cell mediated killing of MS-1 cells (LDH release, human pan T cells, E:T 5:1, 17 h): 0.352 nM

B4: Molecule C, 1+1 CrossFab-IgG (VH/VL exchange in CD3 binder, CD3 binder V9, Robo 4 binder 01E06) (bispecific antibody)
chain 1: not shown
chain 2: DFKMTQSPDILSPSLGESVTITCQSSQNIYSNLAWYQQKPGEHPKLLIYTASILADGIPSRFTGSGSGTQFSLKISSLQPDDVANYYCQQYVYYRTFGPGTKLEIKRTVAAPSVFIFPPSDEQLKSGTASVVCLLNNFYPREAKVQWKVDNALQSGNSQESVTEQDSKDSTYSLSSTLTLSKADYEKHKVYACEVTHQGLSSPVTKSFNRGEC
chain 3: EVQLVESGGGLVQPGGSLRLSCAASGYSFTGYTMNWVRQAPGKGLEWVALINPYKGVSTYNQKFKDRFTISVDKSKNTAYLQMNSLRAEDTAVYYCARSGYYGDSDWYFDVWGQGTLVTVSSASVAAPSVFIFPPSDEQLKSGTASVVCLLNNFYPREAKVQWKVDNALQSGNSQESVTEQDSKDSTYSLSSTLTLSKADYEKHKVYACEVTHQGLSSPVTKSFNRGEC
chain 4: DKTHTCPPCPAPEAAGGPSVFLFPPKPKDTLMISRTPEVTCVVVDVSHEDPEVKFNWYVDGVEVHNAKTKPREEQYNSTYRVVSVLTVLHQDWLNGKEYKCKVSNKALGAPIEKTISKAKGQPREPQVCTLPPSRDELTKNQVSLSCAVKGFYPSDIAVEWESNGQPENNYKTTPPVLDSDGSFFLVSKLTVDKSRWQQGNVFSCSVMHEALHNHYTQKSLSLSPGK
[1]
  EC50 of T-cell mediated killing of HUVECs (LDH release, human pan T cells, E:T 5:1, 22 h): 0.046 nM
[3]
  EC50 of T-cell mediated killing of MS-1 cells (LDH release, human pan T cells, E:T 5:1, 17 h): 0.472 nM

— patent US20180282410A1 (Hoffmann-La Roche, published 2018)
